Starred links: 1 amine or outer side, 2 acyl side, 3 side chain; linkers in the order of their positions; H or OH if unused. Non-standard residues stand in square brackets, D forms with d. *: point of attachment. dBip = N[C@H](Cc1ccc(-c2ccccc2)cc1)C(=O)O; Oic = O=C(O)[C@@H]1C[C@@H]2CCCC[C@@H]2N1; Phe(4-Cl) = N[C@@H](Cc1ccc(Cl)cc1)C(=O)O; Phe(4-I) = N[C@@H](Cc1ccc(I)cc1)C(=O)O; γGlu = O=C(O)[C@H](CCC(=O)[*:2])N[*:1]; NMeR = CN[C@@H](CCCNC(=N)N)C(=O)O; Tridecanoyl = CCCCCCCCCCCCC(=O)*; hArg = N=C(N)NCCCC[C@H](N)C(=O)O; Cha = N[C@@H](CC1CCCCC1)C(=O)O; NMeL = CN[C@@H](CC(C)C)C(=O)O; Nle = CCCC[C@H](N)C(=O)O; AEEA = NCCOCCOCC(=O)O
T1: human APJ receptor (human, UniProt P35414 1-380)
T1 sequence (looked up): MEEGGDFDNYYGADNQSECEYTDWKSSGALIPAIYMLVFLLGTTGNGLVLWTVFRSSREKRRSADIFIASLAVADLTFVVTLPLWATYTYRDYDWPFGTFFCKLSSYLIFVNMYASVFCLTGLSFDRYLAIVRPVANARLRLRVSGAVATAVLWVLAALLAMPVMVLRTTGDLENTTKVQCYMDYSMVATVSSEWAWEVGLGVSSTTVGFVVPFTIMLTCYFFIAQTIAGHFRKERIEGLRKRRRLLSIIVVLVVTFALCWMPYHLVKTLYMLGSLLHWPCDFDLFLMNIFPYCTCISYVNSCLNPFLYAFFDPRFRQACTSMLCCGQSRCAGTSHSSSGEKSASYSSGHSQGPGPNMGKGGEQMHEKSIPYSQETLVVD

T2: rat APJ receptor (rat, UniProt Q9JHG3 1-377)
T2 sequence (looked up): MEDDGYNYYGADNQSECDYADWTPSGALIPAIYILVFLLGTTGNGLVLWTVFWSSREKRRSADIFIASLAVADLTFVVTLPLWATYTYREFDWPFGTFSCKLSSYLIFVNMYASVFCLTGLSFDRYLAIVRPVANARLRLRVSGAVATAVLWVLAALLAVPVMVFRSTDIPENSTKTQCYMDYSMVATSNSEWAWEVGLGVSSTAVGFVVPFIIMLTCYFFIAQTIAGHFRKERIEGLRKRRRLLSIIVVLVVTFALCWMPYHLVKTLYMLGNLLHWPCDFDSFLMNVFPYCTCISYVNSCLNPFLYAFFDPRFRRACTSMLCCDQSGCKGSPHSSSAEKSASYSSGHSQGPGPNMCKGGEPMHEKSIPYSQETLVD

B1: SEQ ID NO: 317 (peptide)
peptide: Tridecanoyl-[γGlu][AEEA][AEEA][hArg][dR]Q[hArg]P[Nle][NMeL]AHKG[Oic][Phe(4-I)]P[dBip]-OH
SMILES: CCCCCCCCCCCCC(=O)N[C@@H](CCC(=O)NCCOCCOCC(=O)NCCOCCOCC(=O)N[C@@H](CCCCNC(=N)N)C(=O)N[C@H](CCCNC(=N)N)C(=O)N[C@@H](CCC(N)=O)C(=O)N[C@@H](CCCCNC(=N)N)C(=O)N1CCC[C@H]1C(=O)N[C@@H](CCCC)C(=O)N(C)[C@@H](CC(C)C)C(=O)N[C@@H](C)C(=O)N[C@@H](Cc1c[nH]cn1)C(=O)N[C@@H](CCCCN)C(=O)NCC(=O)N1[C@H](C(=O)N[C@@H](Cc2ccc(I)cc2)C(=O)N2CCC[C@H]2C(=O)N[C@H](Cc2ccc(-c3ccccc3)cc2)C(=O)O)C[C@@H]2CCCC[C@@H]21)C(=O)O
B2: SEQ ID NO: 490 (peptide)
peptide: Tridecanoyl-[γGlu][AEEA][AEEA][hArg]Q[hArg]P[hArg][Cha]SHKG[Oic][Nle]P[Phe(4-Cl)]-OH
SMILES: CCCCCCCCCCCCC(=O)N[C@@H](CCC(=O)NCCOCCOCC(=O)NCCOCCOCC(=O)N[C@@H](CCCCNC(=N)N)C(=O)N[C@@H](CCC(N)=O)C(=O)N[C@@H](CCCCNC(=N)N)C(=O)N1CCC[C@H]1C(=O)N[C@@H](CCCCNC(=N)N)C(=O)N[C@@H](CC1CCCCC1)C(=O)N[C@@H](CO)C(=O)N[C@@H](Cc1c[nH]cn1)C(=O)N[C@@H](CCCCN)C(=O)NCC(=O)N1[C@H](C(=O)N[C@@H](CCCC)C(=O)N2CCC[C@H]2C(=O)N[C@@H](Cc2ccc(Cl)cc2)C(=O)O)C[C@@H]2CCCC[C@@H]21)C(=O)O
B3: SEQ ID NO: 329 (peptide)
peptide: Tridecanoyl-[γGlu][AEEA][AEEA][hArg][dR]Q[hArg]P[Nle][NMeL]AAKG[Oic][Phe(4-I)]P[dBip]-OH
SMILES: CCCCCCCCCCCCC(=O)N[C@@H](CCC(=O)NCCOCCOCC(=O)NCCOCCOCC(=O)N[C@@H](CCCCNC(=N)N)C(=O)N[C@H](CCCNC(=N)N)C(=O)N[C@@H](CCC(N)=O)C(=O)N[C@@H](CCCCNC(=N)N)C(=O)N1CCC[C@H]1C(=O)N[C@@H](CCCC)C(=O)N(C)[C@@H](CC(C)C)C(=O)N[C@@H](C)C(=O)N[C@@H](C)C(=O)N[C@@H](CCCCN)C(=O)NCC(=O)N1[C@H](C(=O)N[C@@H](Cc2ccc(I)cc2)C(=O)N2CCC[C@H]2C(=O)N[C@H](Cc2ccc(-c3ccccc3)cc2)C(=O)O)C[C@@H]2CCCC[C@@H]21)C(=O)O
B4: SEQ ID NO: 310 (peptide)
peptide: Tridecanoyl-[γGlu][AEEA][AEEA][hArg]Q[hArg]P[NMeR][Cha]SHKG[Oic][Nle]P[Phe(4-Cl)]-OH
SMILES: CCCCCCCCCCCCC(=O)N[C@@H](CCC(=O)NCCOCCOCC(=O)NCCOCCOCC(=O)N[C@@H](CCCCNC(=N)N)C(=O)N[C@@H](CCC(N)=O)C(=O)N[C@@H](CCCCNC(=N)N)C(=O)N1CCC[C@H]1C(=O)N(C)[C@@H](CCCNC(=N)N)C(=O)N[C@@H](CC1CCCCC1)C(=O)N[C@@H](CO)C(=O)N[C@@H](Cc1c[nH]cn1)C(=O)N[C@@H](CCCCN)C(=O)NCC(=O)N1[C@H](C(=O)N[C@@H](CCCC)C(=O)N2CCC[C@H]2C(=O)N[C@@H](Cc2ccc(Cl)cc2)C(=O)O)C[C@@H]2CCCC[C@@H]21)C(=O)O

Target: T1, human APJ receptor
Assay: cell-based or functional assay

Row | Binder | EC50 Human APJ Receptor
1 | B1 | 56.8 nM
2 | B2 | 0.0277 nM
3 | B3 | 37.5 nM
4 | B4 | 0.226 nM

Target: T2, rat APJ receptor
Assay: cell-based or functional assay

Row | Binder | EC50 Rat APJ Receptor
5 | B1 | 63.9 nM
6 | B2 | 0.102 nM
7 | B3 | 36.1 nM
8 | B4 | 0.363 nM

From patent US10941182 (Amgen, dated 2021)
